Measurements published in PMC3641820.

Target: Recombinant Borrelia burgdorferi HtrA (HtrABb, BB0104) with intact N-terminal His-tag (Borrelia burgdorferi strain B31A3)
Test: SEC

Recombinant Borrelia burgdorferi HtrA (HtrABb, BB0104) with intact N-terminal His-tag (enzyme)
stoichiometry N: 3
